Measured values: the DeepSol protein solubility set

Assay: soluble on expression in E. coli; label from the status in PepcDB or PDB records

| Sequence | soluble on expression in E. coli |
| --- | --- |
| MAHHHHHHMEWVPCTEQTGSVGCREGHCATSLQEKSTGEEWVLVVGGYCEGERDGAVMAARADGLPMLRWVRLDKPNMTWFECDGASLTHVTGDTAYFFGGLNEHMNHSNQLLCLSLHQGQQGDLSLDVVKVETTGDVPLPRARHSAGSAGRYFVVFGGETEDAEQNNDGYILDTDTMVWTRIPTGHQVPNPRLLAGPLVFYSPHGCILYGGAHFVNGDIRSMSDVWNLHIPLGGTWFNVSYGDGAPACRFPRSNGHAGGVLGRVGGETVVVFVGGKDAAEGCDRVKQVQPPKSAEDKFHLRLVDPVLAGGEGPHWRYTPAAVDTRRGVLLLGGQCRHPQEVAAFLLKQTGVTLQR | not soluble |
| MDDATEQEVFNRMQMTQFEEKRFELVVIRAEDTVVVEPLRQRETCPKCHQILSSELSRLWHQFVHMDAYNGFLDGKFQIQLPDFEFVIPCPFSTCSLLFLDLIDARFHYLLEHQSCQLFCCGVRFSDYKTALEHLQGTGSVETEAWDQQKHFLKPVYICNCCNRTWSSRNEYVAHLHGRDHMCPDPVCKYIFETNEKCIRHFFEQHYKHLFLDSRHLLLNYKYFLRYQEKQEERAYGLYVCTTCQRRFRDNKGFQSHVASQNCEFFDRKFFVQVIACKCGHQFKYCYYQRDVLLRNLPVLREAMEHVEREAPFNNMPEDVCNIYRSIIVVIIDVNQRLINEKFTNYQRTSPLKHSSFTPRQMAKLLLEVVDYFWKIM | not soluble |
| MSLSTYTTGELAKHVGVSVRTIQYYDQRGLLTPMTTAGGRREYTAQDIERLQLILVLKSMGLKLAAIKDILNSPNATDVLQLLLTEQVQRLRQDQAATTTQLKTVIAVQKALAVSGPFPLESIHDMDQLMTNQQREGHHHHHH | not soluble |
| MSLNTSLLILLVASFSSLVLSQNDSKKGGLPKKVHFSFGPAYLRNLTKEEKQQYYAIFGNKDLTIKQQEDQRLAFAEKHGFGQAIKDDIKLKAGNHELIRKERPEIIKNLLAAHEATMKIFDNKDQTLSQREAAVNALKKKYPHAPSTLYYISRLITGNGKHQTPFIKHH | not soluble |
| ATDKRLLGNTAIIGQSGSGKTVLLGFLLAQAQKFKPTTVVFDKDRGMEIAIRAMGGRYLTFKPGRQSGFNPFQLPPTQDNLTFLKQFVKKLAEASSEITHRDEEEINQAVMSIMSSNINPSLRRLSFLLQFLPNPHLNDYNSHPSVHTRLIKWCEGGDYGWLFDNPTDALDLSTHQIYGFDITEFLDNPETRTPVMMYLLYRTEGMISGQRFMYIFDEFWKPLQDPYFEDLAKNKQKTIRKQNGIFVFATQEPTDALESNIAKTLIQQCATYIFLA | not soluble |
| MGSDKIHHHHHHMDAPSTTPHDAVFKQFLMHAETARDFLEIHLPVELRELCDLNTLHLESGSFIEESLKGHSTDVLYSVQMQGNPGYLHVVIEHQSKPDKKMAFRMMRYSIAAMHRHLEADHDKLPLVVPILFYQGEATPYPLSMCWFDMFYSPELARRVYNSPFPLVDITITPDDEIMQHRRIAILELLQKHIRQRDLMLLLEQLVTLIDEGYTSGSQLVAMQNYMLQRGHTEQADLFYGVLRDRETGGESMMTLAQWFEEKGIEKGIQQGRQEVSQEFAQRLLSKGMSREDVAEMANLPLAEIDKVINLI | not soluble |
| MSSQLNHGTLPKISIVTPSYNQAQYLEATMRSILDQGYPDLEYIVMDGGSTDGSTEIIQKYSDRLTYWESAPDKGQADAIFRGFERATGEIFCYVNSDDLLLPGSLEMVGRWFREHPDEEWVVGGTILIDGLGIPIIRSRRGLPEADLGVKVTFKRLLLHNCGGFHQPASFWRRSAFEQAGGFDRTLRFCFDYDLFFRLAKRRPSGRIRSFLAAFRYHPASKTSTLESVFREENETLWRRYGRYLYSENQIRNFAHKQTTRDMWNNRIIKLGFYLKILNVSNAIGSLEHHHHHH | not soluble |
| MKGLKERQDRRLGAFLGLAVGDALGAQVEGLPKGTFPEVREMKGGGPHRLPPGFWTDDTSQALCLAESLLQRGFDPKDQMDRYLRWYREGYRSATGVCFGLGHATRRALERYAATGDPYAGDEAGAGNGPLMRLAPLVLAYENHPDLLSLARRAARTTHGAREALEATEVLAWLLREALRGAPKEALLALEPFRGADLHPALRRVVEGGFWEAPEEGPGYAPGTLAAALWAFARGRDFEEGMRLAVNLGGDADTVGAVYGQLAGAYYGLGAIPGRWLRALHLREEMEALALALYRMSMASPRE | soluble |
| MGSDKIHHHHHHMPINSFENYPMNWKPKRPSKGQILYKALAEQLEQDINNGFLLPGTKLPPQRELADFLDVNVSTISRAFKICEKKGLISGVTGSGTFVSYDTRSNLFLMSSNNKITFIEMGTMNPDFTLEEMNTLFKHIIKEIDFKTIFQYGQRDGAKWQKEAIAKLIYKAGLETTSDSLLPASGGQNAIVAILAGLFQHGDRIGVDPLTYPGIKTAAKMLGIQLIPIKQEDNEISEEGLLYACKNENIKGLYIIPDYQNPTTHIMSQNGRKMIANIASKYNLIVIEDAIHSLLNETHLNPVASYLPNQTIYITSLSKIIAPSLRLAYISTPKQYREALSSALYNINLSQSYFLTEIAYRMITSGEADKLINARRKSARRRNKIINQYLSGYNLLGNEECIFRWLILPDGIMAEKFEIQALKEGVQVYASERFAVGKEKPISAIRIAVCATESTEELKAGLSVLKRLLEEKK | not soluble |
| AIADPAEVEFLAEKEMVKIIPNFSLDKIYLIGGDLGPFNPGLPVEVPVWLALNLKQRQKCRIVPPEWMDTDKLEDIREQERKLDTFTPIPNPYYMELTKLLLNHAADNIPKADEIRTLVKDIWDTRMAKLRLSADSFISQQEAHAQLDNLTLMEINTTRSFLLDSLNYMYKLRSNLQPGRSKDY | soluble |
| MAHHHHHHMSDSEWSSDSGVSNAEAIAAASLNKHLGELMTLQHPSRVTHRRPAYATSEGTTASSATISHTPRVSGEAPRKQARMDISSLIRQALSQSSAHCTSANVDEVAGRVVAALRQKAGGAEVARAVTRALADPLNEELRESVLSGLLRPEELVALDEVSLLNQAERSVLAKARRERLNQHSVEYLERLNLTVTNMLTCPECRSHECYANFRFTDFVKWQGDDQTPTLQRCCRCSVSFCNERGKRAASAPGACLCAWVAVKVLSATTASRPCIHPSSNRHRTARRGSTRETGKISRFSSCRTRHHFCQKR | not soluble |
| MKPSSPSRSKGHAKARRKTREELNQEARDRKRQKKRRGHAPGSRAAGGNNTSGSKGQNAPKDPRIGSKTPIPLGVTEKVTKQHKPKSEKPMLSPQAELELLETDERLDALLERLEAGETLSAEEQSWVDAKLDRIDELMQKLGLSYDDDEEEEEDEKQEDMMRLLRGN | not soluble |
| SEKNPPDDTGPVHVPLGHIVANEKWRGSQLAQEMQGKIKLIFEDGLTPDFYLSNRCCILYVTEADLVAGNGYRKRLVRVRNSNNLKGIVVVEKTRMSEQYFPALQKFTVLDLGMVLLPVASQMEASCLVIQLVQEQTKEPSKNPLLGKKRALLLSEPSLLRTVQQIPGVGKVKAPLLLQKFPSIQQLSNASIGELEQVVGQAVAQQIHAFFTQPR | soluble |
| MTEMAKGSVTHQQLIALLSQEGANFRVVTHEAVGKCEAVSEIRGTALGQGAKALVCKVKGNGVNQHVLAILAADQQADLSQLASHIGGLRASLASPAEVDELTGCVFGAIPPFSFHPKLKLVADPLLFERFDEIAFNAGMLDKSVILKTADYLRIAQPELVNFRRTA | not soluble |
| MGSDKIHHHHHHMKDILKELKKKLSEEDFNKFNGRVTRVVGLTVESKGPDAFLGEMCKISLQNGKNALAEVVGFREESVILMPYEDVSGLKMGCEVIRTNKVLEVGVSRKMIGRVFDGLGRPIDGKPFVPEDRYPLINNPPNPLKRRRIKDPLPVGIRSIDGFITIGKGQRIGIFAGSGVGKSTLLGMIARNTTADINVLALIGERGREVREFIERDLGEEGLKRSILVVSTSDQPALARVKSLLTATSIAEFFRDLGYDVLLMVDSLTRWAMAQREVGLAVGEPPTTRGYPPSVFAGLPKILERAGNSDKGSITAIYTVLVEADDFNEPISDTVRSIVDGHIILSRRLAESNHYPAVDVLASVSRLMNDIVTEEHREAANRLRSLMSAYESAKDLIEIGAYKSGTNPLVDKAVEMKDEIDSFLKQGVFEKASFEETLQKLLDLYLRSLD | not soluble |
| MSLKSAKELLFLALGGSGEIGMNVNLYCCDGKWLMVDLGMTFADPYYPGIDLVFADLEFIEERLDDLVGIVLTHAHEDHIGAVPYFAQDLGVPLYATPFTAKLVHEKLLEAGIEKEVELNVIDHLDPFQLGPFGLRYIPLAHSIAEGNALLIDTPHGRIFHTGDWKLDDEPRIGTPATEEELTAIGDEGVLALVCDSTNVFNPNPSGSEGAVRAGLLEAVAAQKGRRVVVTTFASNVARLQTLGEVAEATGRRVCVAGRSLDRIIRVAQSCGYLKNFPETVHMDDAMDLPRGELLVLATGGQGEPRAALARIAADQHPVKLEKGDAVLFSTRQIPGNELAIGRVQNALVEKGVRIVTDRQSMIHVSGHPGRPELMALYEWLRPEILVPVHGEIRHMAEQAQLGLDEGIPKAIVQKNGDLIRLAPNGPKKLSEEGHHHHHH | soluble |
| MSLDDRRLIAEVEARRADLVALTQDLVRIPTLNPPGRNYRALCDMLAARLAPQFEVELVRAHGAPGDSETYPRWNLIARRQGARDGDCVHFNSHHDVVEVGHGWTRDPFGAEVEGDRLYGRGACDMKGGLAASVIAAEAFLAVCPDFAGSIEISATADEESGGFGGVAYLARQGRFAHVQHVLIPEPLHKDRICLGHRGVWWAEVETQGRIAHGSMPFLGDSAIRHMGALLAEIEERLYPLLATRTTAMPVTPEGARQSTLNINSIHGGEPEPEPGYTGLPAPCVADRCRIVIDRRFLIEEDLDEVKAELRALAERLAEARPGFAFEIRDLFEVRPTLTDRDAPVVRSTAAAIERVLARQAEYVVSPGTYDQKHIDRIGKLKNCIAYGPGLLHLAHQPDEWVGIADMVDSAKVMALVLADLLAPEEGHHHHHH | soluble |
| TYDSLKESTARDTGHLTLTTPGYFAKEEEMPLSNGLSHADEITKQLIGLSEVRGVQPRVEFSGLISNGSKSSIFIGIGVNEREFDMKGPFLDVRDGQTLSNIHASRYDASEPEVMLGVDLASNLSVNVGDWITLLATTTDGALNAYDFKVRGIYSTGVPELDKRQLYVHINSAQSLLGSDKVSALSVFLFDTCLTNKVEQQVATILNKQKPSFGDQEVEITPWQERAFFYLKVKDLYDR | not soluble |
| MAHHHHHHMGKAAKGRTAMPGKLDTTEADKRTPKSIIIYRGEVGIHVRSLMHEWRNVFLPWSSKKLHGKNKSLKDFLAVAATFSASHLQLFTAPSQGTSLRIMRFFNGPTLSFRVLSFTLHKEIVAKQRRPVAVDRAAWEVAPIVVLNNFTHPDLAHRAEVPLLTATFKALFPSLNVQTIQSSEIQRICLFHYDHVEHVVEVRHYYINARTVGVTKTVKKLLENRRPTKLGTLESIDEVLDREDAWSDTDG | not soluble |
| MSHSYSVPKKFPTTVVGSYPKIGPASEAIKKRRAGEISEEEFHRIARESIRMVVEDYIWAGVDIISDGEQTREDMVVYFAERLEGYREGDWVRVFDNVYFRKPIVAGRVRWVRPMIIEDWEYARSISAGRPVKFIITGPYTMLEWSFDLHYGDRRELIFDLARAIRREIDEALARGAEYIQVDEPALSTRPFKEEAELLKEALDIIFKGVGAKRIVHICYGELERILPYILDYPVDQFDLEMKNSNFRLLPYLKEYGYDKEIGYGVIDVHSFQVESVGEVKEAIDRLMKMDIVGPEKVYVDPDCGLKRLPRDVARAKLKNMVEAARLAREEWMAGDPLEHHHHHH | not soluble |
| MALEESLIDLERFCAKAWRVYAKEDPLSHLSFNEFDYLRVIQVFPEGVRITDLADELQVTKPSASNMVVRLEKKGLVKRIACNEDARAKRVLLTEDVAEKMSLEQIVYKDISDQMMLKLNEQEAKQLQSLLNKALGN | not soluble |
